Laboratory results from patent US20240016928A1 (SCHOLAR ROCK, published 2024).

Tests used:
[1] = target: T1, latent TGFβ2 (Chlorocebus aethiops (Green monkey) …, UniProt P61811 20-414); assay: Octet (bio-layer interferometry)
T1 sequence: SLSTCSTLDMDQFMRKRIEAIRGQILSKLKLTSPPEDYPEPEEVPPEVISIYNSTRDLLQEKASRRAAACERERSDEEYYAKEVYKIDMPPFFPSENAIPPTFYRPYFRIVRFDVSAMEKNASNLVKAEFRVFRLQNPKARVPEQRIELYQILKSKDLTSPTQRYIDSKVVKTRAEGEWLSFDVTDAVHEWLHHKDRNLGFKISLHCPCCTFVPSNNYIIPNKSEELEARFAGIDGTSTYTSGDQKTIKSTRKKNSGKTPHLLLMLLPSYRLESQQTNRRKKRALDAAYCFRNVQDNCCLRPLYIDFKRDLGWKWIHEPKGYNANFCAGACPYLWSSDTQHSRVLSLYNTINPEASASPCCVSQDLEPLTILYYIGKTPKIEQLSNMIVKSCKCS

[2] = target: T2, latent TGFβ3 (Homo sapiens (Human), UniProt P10600 21-412, limits assumed); assay: Octet (bio-layer interferometry)
T2 sequence: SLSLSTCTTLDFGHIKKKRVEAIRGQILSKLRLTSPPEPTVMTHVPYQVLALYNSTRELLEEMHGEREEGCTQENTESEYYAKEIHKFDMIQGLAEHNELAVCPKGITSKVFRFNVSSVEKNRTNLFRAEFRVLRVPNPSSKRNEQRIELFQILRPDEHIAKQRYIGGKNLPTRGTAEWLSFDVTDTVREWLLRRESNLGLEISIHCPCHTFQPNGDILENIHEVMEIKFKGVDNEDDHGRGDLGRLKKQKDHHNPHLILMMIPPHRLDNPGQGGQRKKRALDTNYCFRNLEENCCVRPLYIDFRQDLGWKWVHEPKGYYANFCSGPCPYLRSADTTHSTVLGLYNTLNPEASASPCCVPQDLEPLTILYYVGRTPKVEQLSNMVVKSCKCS

B1: Ab3 (antibody, V domains shown)
VH: EVQLLESGGGLVQPGGSLRLSCAASGFTFRNYAMSWVRQAPGKGLEWVSSISGSGGATYYADSVKGRFTISRDNSKNTLYLQMNSLRAEDTAVYYCARVSSGHWDFDYWGQGTLVTVSS
VL: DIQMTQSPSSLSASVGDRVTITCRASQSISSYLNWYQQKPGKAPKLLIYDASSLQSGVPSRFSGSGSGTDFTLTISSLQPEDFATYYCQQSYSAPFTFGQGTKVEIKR
notes: described as a fully human monoclonal antibody; Ab3-mIgG1 was used in vivo
B1: no binding [1]; no binding [2].
